Reference: US20230372448A1, “THERAPEUTIC USE OF LONG-ACTING CONJUGATE OF TRIPLE AGONIST ACTING ON ALL OF GLUCAGON, GLP-1 AND GIP RECEPTORS AGAINST MULTIPLE SCLEROSIS” (HANMI PHARM. CO. ,LTD., priority 2020, published 2023)
Positions of bridges follow the written chain, without caps; N, C: chain ends. Non-standard residues stand in square brackets, D forms with d. No end group written: not given here. Aib = CC(C)(N)C(=O)O

T1: human GIP receptor (human, UniProt P48546 22-466)
T1 sequence (looked up): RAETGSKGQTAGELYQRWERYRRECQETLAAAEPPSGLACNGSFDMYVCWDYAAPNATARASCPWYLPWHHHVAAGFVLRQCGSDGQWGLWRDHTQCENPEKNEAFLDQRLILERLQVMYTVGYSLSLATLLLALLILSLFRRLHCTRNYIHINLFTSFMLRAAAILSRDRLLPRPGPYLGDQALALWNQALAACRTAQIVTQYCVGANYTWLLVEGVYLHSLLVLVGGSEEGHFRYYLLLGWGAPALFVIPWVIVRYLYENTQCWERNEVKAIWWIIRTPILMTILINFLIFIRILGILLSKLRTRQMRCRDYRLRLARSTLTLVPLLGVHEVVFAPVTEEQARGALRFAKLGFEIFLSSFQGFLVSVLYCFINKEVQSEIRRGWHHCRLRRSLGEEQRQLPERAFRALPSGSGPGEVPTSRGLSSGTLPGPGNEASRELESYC


Assays:
[1] = system: relapsing/remitting multiple sclerosis mouse model; conditions: Mol Neurobiol. 2018, cited from earlier work
[2] = system: pyridoxine-induced peripheral neuropathy in non-diabetic rodents; conditions: Exp Neurol. 2007; cited from earlier work
[3] = biological target: human GCG receptor (human, UniProt P47871 26-477); test: cell-based or functional assay
[4] = biological target: T1, human GIP receptor; test: cell-based or functional assay
[5] = biological target: human GLP-1 receptor (human, UniProt P43220 24-463); test: cell-based or functional assay

Sequence of human GCG receptor (P47871 26-477): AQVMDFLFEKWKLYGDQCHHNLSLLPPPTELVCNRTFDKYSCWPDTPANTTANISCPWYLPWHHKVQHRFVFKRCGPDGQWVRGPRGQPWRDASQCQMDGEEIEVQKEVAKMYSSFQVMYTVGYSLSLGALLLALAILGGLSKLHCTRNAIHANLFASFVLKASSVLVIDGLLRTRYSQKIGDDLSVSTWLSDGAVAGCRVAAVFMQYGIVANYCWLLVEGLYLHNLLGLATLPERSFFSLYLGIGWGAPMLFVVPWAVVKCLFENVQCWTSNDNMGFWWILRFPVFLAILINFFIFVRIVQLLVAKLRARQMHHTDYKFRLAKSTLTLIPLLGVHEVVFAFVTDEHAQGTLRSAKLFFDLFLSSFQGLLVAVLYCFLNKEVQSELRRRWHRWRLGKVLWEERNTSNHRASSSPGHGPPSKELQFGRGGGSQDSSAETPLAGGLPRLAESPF

Molecule	levels of inflammatory cytokines that increase during demyelination [1]	symptoms of multiple sclerosis ([1]; effect similar to that of fingolimod)	protection against pyridoxine-induced functional and morphological defects [2]	In vitro activity (%) compared with native peptide: vs Glucagon [3]	In vitro activity (%) compared with native peptide: vs GIP [4]	In vitro activity (%) compared with native peptide: vs GLP-1 [5]
exendin-4	reduced the levels of inflammatory cytokines	symptom alleviating effect	partially protected			
glucagon-like peptide-1 (HAEGTFTSDVSSYLEGQAAKEFIAWLVKGR; ends and bridges not checked; UniProt P01275 98-127, looked up) [GLP-1, a typical incretin hormone]			partially protected			
H[Aib]QGTFTSDYSKYLDEKACKDFVQWLLDGGPSSGAPPPS (bridge 16-20; not fully specified) [triple agonist of SEQ ID NO: 32]				1.7%	8.8%	151%
H[Aib]QGTFTSDYSKYLDEKACKEFVQWLLAQ (bridge 16-20; not fully specified) [triple agonist of SEQ ID NO: 31]				2.2%	2.4%	135%
